In paper PMC7672607 one finds percent decrease of KIR3DS1 binding against the same cells without HBB peptide data, which are given here for one substance.

Common to all, as to experiment: flow cytometry on cells; K562/HLA-F*01:0x cells stripped of bound peptides with citrate phosphate buffer, with or without 200 µM HBB peptide (4 h, 37 °C, serum-free medium); Fc-block 20 min 4 °C; KIR3DS1-Fc 25 µg/mL, 40 min, 4 °C; detected with goat anti-human IgG Fc PE; n = 3
For experiment [1], the target named is HLA-F*01:04 on K562 cells loaded with the HBB peptide … (human | human (endogenous in K562)).
In experiment [2] the target is HLA-F*01:01 on K562 cells loaded with the HBB peptide … (human | human (endogenous in K562)).
Experiment [3] deals with HLA-F*01:03 on K562 cells loaded with the HBB peptide … (human | human (endogenous in K562)).

With “recombinant KIR3DS1-Fc chimeric protein (from UniProt Q14943 22-340) (Fc fusion)”, the percent decrease of KIR3DS1 binding against the same cells without HBB peptide worked out at 16.5% in experiment [1], 36.2% in experiment [2] and 27.9% in experiment [3].
